Where “and” joins values, the source holds several entries; their conditions need not be identical. Equal entries are not always repeated.
Experiments:
[1] = target: the molecule itself; assay: size exclusion chromatography (self-association)
OaAEP1 = assay: Self-activation (acid-induced self-cleavage) of OaAEP1 and mutants, SDS PAGE; type: biochemical, Oldenlandia affinis; details: activation for 3 hours
Method: To self-activate OaAEP1, 1 mM EDTA and 0.5 mM Tris (2-carboxyethyl) phosphine hydrochloride were added to the immature protein and the pH of the solution was adjusted to 4 with glacial acetic acid. Fractions containing the protein (as analyzed by SDS-PAGE) were pooled and then incubated for 3 to 16 hours at room temperature or 37° C. Protein precipitation at this pH allowed removal of the bulk of the contaminating proteins by centrifugation. Activated proteins were concentrated by ultracentrifugation using a 50 kDa cutoff concentrator (Sartorius) and stored at −80° C.
OaAEP1 was cloned and expressed in E. coli as an ubiquitin fusion protein as reported earlier (FIG. 2) (Harris, K. S., et al., Nat Commun, 2015. 6: p. 10199). Using ion exchange and size exclusion chromatography (SEC), sufficient amounts of pure protein suitable for enzymatic and structural analysis were obtained (FIG. 2B). At the neutral pH of purification (pH=7.4), OaAEP1 was mainly present as a heterodimer, where both monomers are in their zymogenic form, but only one monomer had retained in addition the ubiquitin and N-terminal His-tag, while the fusion moiety was cleaved in the other monomer (labeled as “His-Ub-AEP-FL” and “AEP-FL” in FIG. 2B and FIG. 2C). This heterodimer was subjected to crystallization trials for structural studies (see below). In agreement with reference (Harris, K. S., et al., Nat Commun, 2015. 6: p. 10199), activation of OaAEP1 was optimum for pH values in the range of 3.4-4.0 (FIG. 2D). Following activation, OaAEP1 converts to a monomer in solution according to SEC analysis (“AEP-holo” in FIG. 2C). To test the ability of the protein to be activated in trans, the catalytic residue Cys217 was mutated into Ser217.
Since the crystallization conditions are compatible with OaAEP1 activation, the present crystal structure is likely to have captured one of the conformational states occurring along the activation pathway. To determine whether Gln347 belongs to the segment recognized and cleaved during self-activation, mutagenesis experiments targeting region 346-351 of the OaAEP1 protein were performed (FIG. 4C). The role of Gln347 in OaAEP1 auto-activation was particularly assessed by mutating this residue to Ala, and whether enzyme activation was abolished was examined. Only little impact was found on the mutant enzyme activation (FIG. 4C). Residues Asn346, Asp349 and Asp351 that are next to Gln347 were then targeted. […] Thus, trans-activation requires the presence of at least one of the four Asx/Gln residues (with a slight preference for Asp349 or Asp351) found in this segment of the linker.

[2] = tested on: ubiquitin and SNAP tag protein; assay: Ligation of two well-folded proteins; type: biochemical
Method: (a) Fluorescence detection using 02 benzylcytosine-Alexa647 of the SNAP protein and SDS PAGE analysis with Comassie blue staining detection of the protein substrate and ligated products. The reaction is schematically depicted as inset. Cys247Ala ligates well folded protein well. […] (b) As little as 30 nM Cys247Ala catalyze ligation of 100 μM Ubiquitin and 500 μM biotin labelled peptide efficiently in 30 min, at room temperature, in pH 7.4 PBS buffer.
The ability of Cys247Ala to ligate ubiquitin with a peptide was first tested. The three residues“Asn-Gly-Leu” were added to the C-terminus of ubiquitin to make it recognizable by Cys247Ala. Another peptide having N-terminal residues GlyLeu was used as the add-on component. At a protein: peptide molar ratio of 1:5, Cys247Ala catalyzed the ligation of more than 90% ubiquitin with the peptide within 10 min (FIG. 6). An amount of 30 nM of Cys247Ala was enough for the reaction compared to 10-30 μM of sortase A typically required to perform productive ligations. […] Ubiquitin having the same “Asn-Gly-Leu” modification at its C-terminal end and a N-terminal modified SNAP (NEB) tag protein were used as substrates. […] Protein ligation can be performed within minutes at neutral pH and at room temperature.

[3] = tested on: peptide substrate "[…]" (SEQ ID NO: 18); assay: Peptide cyclization assay, kinetic analysis (HPLC/MS); type: biochemical; details: cyclization of GLPVSTKPVATRNGL, 37° C., enzyme 700 nM
Method: (§1) Native and modified amino acids were purchased from Sigma-Aldrich (USA). All peptides used in this manuscript were synthesized in-house using the solid-phase method and HPLC purified. Cyclization assays were performed in 50-μl reaction mixtures containing 20 mM phosphate buffer, ligases (5 to 700 nM) and peptide substrates (10 to 300 μM). Each reaction was performed in triplicate at 37° C. and quenched by adding 5 μl of 1 M HCl solution. The peptides were separated by using a reversed-phase C18 analytical column (150×2.1 mm, Vydac) with a linear gradient from 10% to 50% acetonitrile over 15 min on a Nexera UHPLC system (Shimadzu). For kinetic analysis, the concentrations of WT OaAEP1, mutant OaAEP1, and butelase 1 were fixed at 700 nM, 50 nM, and 20 nM, respectively. The cyclization velocities were calculated by converting the HPLC-peak areas of remained linear precursors or the cyclized products into concentrations. The identity of each HPLC peak was analyzed by MALDI-TOF MS (ABI 4800 MALDI TOF/TOF). The velocities were input into GraphPad Prism (GraphPad Software, San Diego) to obtain the Michaelis-Menten curve and the kinetic parameters (kcat and Km). Comparison for the cyclization efficiency of various OaAEP1 mutants were performed in a volume of 20 μl of the reaction mixture and analyzed by MALDI-TOF MS after 10 mins or 1 hour ligation reaction.
The peptide cyclization activity of mature OaAEP1 was then analyzed using MS and the peptide substrate “[…]” (SEQ ID NO: 18) (FIG. 5A). The turn-over rate (kcat) for OaAEP1 is 0.052 s^−1, a value in good agreement with the previous report (Harris, K. S., et al., Nat Commun, 2015. 6: p. 10199). Likewise, the cyclization activity of butelase 1 extracted from plant was measured using the 15 residues peptide “[…]” (SEQ ID NO: 19) (FIG. 5A) leading to a kcat about 90 times faster than OaAEP1 b.

[4] = tested on: ubiquitin with C-terminal Asn-Gly-Leu and peptide having N-terminal residues GlyLeu; details: comparison value; cited from earlier work
[5] = tested on: peptide "[…]" (SEQ ID NO: 19); assay: Peptide cyclization assay of butelase 1; type: biochemical; details: butelase 1 extracted from plant, peptide GLPVSTKPVATRNHV
Method: as §1, with “The velocities were input into GraphPad Prism (GraphPad Software, San Diego) to obtain the Michaelis-Menten curve and the kinetic parameters (kcat and Km).” left out
The peptide cyclization activity of mature OaAEP1 was then analyzed using MS and the peptide substrate “[…]” (SEQ ID NO: 18) (FIG. 5A). […]

ubiquitin with C-terminal Asn-Gly-Leu and peptide having N-terminal residues GlyLeu, sequence (as listed by the source): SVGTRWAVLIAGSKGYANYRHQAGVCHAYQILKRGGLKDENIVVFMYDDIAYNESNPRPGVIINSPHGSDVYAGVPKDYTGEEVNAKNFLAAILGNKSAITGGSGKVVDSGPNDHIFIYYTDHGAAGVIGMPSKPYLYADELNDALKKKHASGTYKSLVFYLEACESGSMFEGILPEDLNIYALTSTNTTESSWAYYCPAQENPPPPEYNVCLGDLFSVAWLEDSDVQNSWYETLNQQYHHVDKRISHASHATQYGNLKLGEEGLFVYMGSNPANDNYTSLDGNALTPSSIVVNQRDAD

B1: AEP-holo (activated form of OaAEP1, without the C-terminal cap domain) (enzyme)
chain: SVGTRWAVLIAGSKGYANYRHQAGVCHAYQILKRGGLKDENIVVFMYDDIAYNESNPRPGVIINSPHGSDVYAGVPKDYTGEEVNAKNFLAAILGNKSAITGGSGKVVDSGPNDHIFIYYTDHGAAGVIGMPSKPYLYADELNDALKKKHASGTYKSLVFYLEACESGSMFEGILPEDLNIYALTSTNTTESSWCYYCPAQENPPPPEYNVCLGDLFSVAWLEDSDVQNSWYETLNQQYHHVDKRISHASHATQYGNLKLGEEGLFVYMGSNPANDNYTSLDGNALTPSSIVVNQRDAD
notes: also called mature OaAEP1
- binding result [1]: no binding

B2: OaAEP1: wild type asparaginyl endopeptidase from Oldenlandia affinis, SEQ ID NO:3, weak peptide cyclase (protein, listed as Ovaloparmena affinis)
chain: MVRYLAGAVLLLVVLSVAAAVSGARDGDYLHLPSEVSRFFRPQETNDDHGEDSVGTRWAVLIAGSKGYANYRHQAGVCHAYQILKRGGLKDENIVVFMYDDIAYNESNPRPGVIINSPHGSDVYAGVPKDYTGEEVNAKNFLAAILGNKSAITGGSGKVVDSGPNDHIFIYYTDHGAAGVIGMPSKPYLYADELNDALKKKHASGTYKSLVFYLEACESGSMFEGILPEDLNIYALTSTNTTESSWCYYCPAQENPPPPEYNVCLGDLFSVAWLEDSDVQNSWYETLNQQYHHVDKRISHASHATQYGNLKLGEEGLFVYMGSNPANDNYTSLDGNALTPSSIVVNQRDADLLHLWEKFRKAPEGSARKEEAQTQIFKAMSHRVHIDSSIKLIGKLLFGIEKCTEILNAVRPAGQPLVDDWACLRSLVGTFETHCGSLSEYGMRHTRTIANICNAGISEEQMAEAASQACASIP
- pH optimum of activation (OaAEP1): 3.4-4.0 pH and 3.4 to 4 pH
- protein ligation activity (control ligation experiments) [2]: but not with the OaAEP1 wild type construct
- ligation of SNAP tag protein with Ubiquitin ([2]; 5 μM SNAP tag, 100 nM Cys247Ala, 4000 nM wild type OaAEP1b): not
- turn-over rate (kcat) [3]: 0.052 s⁻¹

B3: sortase A: bacterial sortase commonly used to catalyze transpeptidation reactions; recognizes LPXTG (protein, UniProt Q2FV99 1-206, looked up)
Sortase A: MKKWTNRLMTIAGVVLILVAAYLFAKPHIDNYLHDKDKDEKIEQYDKNVKEQASKDKKQQAKPQIPKDKSKVAGYIEIPDADIKEPVYPGPATPEQLNRGVSFAEENESLDDQNISIAGHTFIDRPNYQFTNLKAAKKGSMVYFKVGNETRKYKMTSIRDVKPTDVGVLDEQKGKDKQLTLITCDDYNEKTGVWEKRKIFVATEVK
- amount of enzyme typically required to perform productive ligations [4]: 10 to 30 µM

B4: butelase 1: AEP1 from Clitoria ternatea, Asx peptide ligase extracted from plant, SEQ ID NO:4 (protein, listed as Clitoria ternatea)
chain: IRDDFLRLPSQASKFFQADDNVEGTRWAVLVAGSKGYVNYRHQADVCHAYQILKKGGLKDENIIVFMYDDIAYNESNPHPGVIINHPYGSDVYKGVPKDYVGEDINPPNFYAVLLANKSALTGTGSGKVLDSGPNDHVFIYYTDHGGAGVLGMPSKPYIAASDLNDVLKKKHASGTYKSIVFYVESCESGSMFDGLLPEDHNIYVMGASDTGESSWVTYCPLQHPSPPPEYDVCVGDLFSVAWLEDCDVHNLQTETFQQQYEVVKNKTIVALIEDGTHVVQYGDVGLSKQTLFVYMGTDPANDNNTFTDKNSLGTPRKAVSQRDADLIHYWEKYRRAPEGSSRKAEAKKQLREVMAHRMHIDNSVKHIGKLLFGIEKGHKMLNNVRPAGLPVVDDWDCFKTLIRTFETHCGSLSEYGMKHMRSFANLCNAGIRKEQMAEASAQACVSIPDNPWSSLHAGFSV
- kcat relative to OaAEP1b [5]: about 90 times

From patent US11795488B2, “Methods for enzymatic peptide ligation” (NANYANG TECHNOLOGICAL UNIVERSITY, priority 2016, dated 2023)
